The target in the series is Rep68 wt (Adeno-associated virus 2 (AAV2), UniProt P03132 1-536). The experiment in a line: fluorescence anisotropy. A general note: Polarisation of emitted light reports the rotation of a fluorescent probe.
Chain of Rep68 wt (P03132 whole entry): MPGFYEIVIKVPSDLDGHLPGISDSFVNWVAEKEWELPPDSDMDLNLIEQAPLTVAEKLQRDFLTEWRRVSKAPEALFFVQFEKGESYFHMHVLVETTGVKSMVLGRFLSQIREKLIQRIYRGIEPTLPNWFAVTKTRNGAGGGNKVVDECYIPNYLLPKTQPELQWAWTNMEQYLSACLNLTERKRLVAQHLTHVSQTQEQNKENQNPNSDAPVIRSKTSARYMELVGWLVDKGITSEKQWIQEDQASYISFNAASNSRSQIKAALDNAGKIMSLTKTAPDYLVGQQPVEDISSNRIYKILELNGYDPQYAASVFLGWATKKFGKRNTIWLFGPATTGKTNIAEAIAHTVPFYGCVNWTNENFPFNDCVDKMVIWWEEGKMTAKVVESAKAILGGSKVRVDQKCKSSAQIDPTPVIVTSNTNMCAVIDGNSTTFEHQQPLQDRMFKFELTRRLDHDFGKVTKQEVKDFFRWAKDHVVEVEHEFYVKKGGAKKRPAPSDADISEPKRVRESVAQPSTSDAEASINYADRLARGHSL

B1: 41-mer AAVS1 RBS DNA (dsDNA)
DNA 1: TGGCGGCGGTTGGGGCTCGGCGCTCGCTCGCTCGCTGGGCG
DNA 2: CGCCCAGCGAGCGAGCGAGCGCCGAGCCCCAACCGCCGCCA
As for B1, the binding result is listed as “binds”.

These data come from paper PMC4636433.
